Experimental data: paper PMC7771068
Read-outs that look alike come from different tables or passages of the source.

Key:
Experiment in all cases: MST
A3G-NTD-R24A-CTD2 = A3G-NTD-R24A-CTD2 (Homo sapiens, UniProt Q9HC16 1-384, R24A;P200A;L234K;N236A;C243A;P247K;F310K;Q318K;C321A;Q322K;C356A)
[1] = target: T1, A3G-NTD-CTD2 (wild-type NTD fused to soluble CTD2) (Homo sapiens, UniProt Q9HC16 1-384, P200A;L234K;N236A;C243A;P247K;F310K;Q318K;C321A;Q322K;C356A)
[2] = target: T1, A3G-NTD-CTD2 (wild-type NTD fused to …); remark: listed apart in the source
[3] = target: T1, A3G-NTD-CTD2 (wild-type NTD fused to …); remark: listed apart in the source

T1 sequence (Q9HC16 whole entry P200A/L234K/N236A/C243A/P247K/F310K/Q318K/C321A/Q322K/C356A, the tested form may be a part): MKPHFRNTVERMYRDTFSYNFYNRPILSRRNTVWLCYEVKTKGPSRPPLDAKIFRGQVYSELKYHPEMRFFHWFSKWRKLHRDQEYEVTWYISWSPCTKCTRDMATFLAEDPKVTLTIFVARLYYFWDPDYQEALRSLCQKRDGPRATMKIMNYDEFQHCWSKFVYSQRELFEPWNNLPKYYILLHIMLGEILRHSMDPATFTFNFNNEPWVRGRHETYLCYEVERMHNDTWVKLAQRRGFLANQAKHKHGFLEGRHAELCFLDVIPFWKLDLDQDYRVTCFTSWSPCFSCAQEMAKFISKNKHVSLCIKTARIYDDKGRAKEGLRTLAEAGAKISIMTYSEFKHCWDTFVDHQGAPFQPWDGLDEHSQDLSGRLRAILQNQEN
Chain of A3G-NTD-R24A-CTD2 (Q9HC16 whole entry R24A/P200A/L234K/N236A/C243A/P247K/F310K/Q318K/C321A/Q322K/C356A, the tested form may be a part): as the sequence (Q9HC16 whole entry P200A/L234K/N236A/C243A/P247K/F310K/Q318K/C321A/Q322K/C356A, the tested form may be a part) above, with R24A counted along it

Binder | Kd (A3G-NTD-R24A-CTD2) [µM] | Kd [1] [µM] | Kd [2] [µM] | Kd [3] [µM]
AATTCCAATTTTTTTT (ssDNA) [16-nt CC (5'-TCC-polyT)] | 132 ± 2.6 | 31.4 ± 3.8 | – | –
AATCCCAAA (ssDNA) [9-nt CCC] | – | – | 20.5 | –
AATCCCAATTTTTTTT (ssDNA) [16-nt CCC (5'-TCCC-polyT)] | 24.6 ± 2.7 | 4.9 ± 0.1 | – | 6.8
